# Experimental data taken from the supplement of paper PMC11908140.
# B1: library; numbered along this chain (parent)
# chain: MRKPRAAVGSGHRKQAASQEGRQKHAKNNSQAKPSACDGLARQPEEVVLQASVSSYHLFRDVAEVTAFRGSLLSWYDQEKRDLPWRRRAEDEMDLDRRAYAVWVSEVMLQQTQVATVINYYTGWMQKWPTLQDLASASLEEVNQLWAGLGYYSRGRRLQEGARKVVEELGGHMPRTAETLQQLLPGVGRYTAGAIASIAFGQATGVVDGNVARVLCRVRAIGADPSSTLVSQQLWGLAQQLVDPARPGDFNQAAMELGATVCTPQRPLCSQCPVESLCRARQRVEQEQLLASGSLSGSPDVEECAPNTGQCHLCLPPSEPWDQTLGVVNFPRKASRKPPREESSATCVLEQPGALGAQILLVQRPNSGLLAGLWEFPSVTWEPSEQLQRKALLQELQRWAGPLPATHLRHLGEVVHTFSHIKLTYQVYGLALEGQTPVTTVPPGARWLTQEEFHTAAVSTAMKKVFRVYQGQQPGTCMGSKRSQVSSPCSRKKPRMGQQVLDNFFRSHISTDAHSLNSAAQ
# Variants of: B1
# Test: 8OG:A repair function score (normalized; synonymous = 0, nonsense = -1) (normalized log-likelihood score); higher = more repair activity (WT-like)
# Conditions: with 8OG:A DNA repair reporter (GFP) in HEK-293 MUTYH KO cells
# Summary of the method: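 MUTYH knockout HEK-293 cells carrying lentiviral MUTYH cDNA NNN codon-scan libraries were grown with 10 pg/ml doxycycline and co-transfected with mCherry and a GFP reporter of 8OG:A repair. Viable mCherry+ cells were sorted at 72 h into GFP+ (repair) and GFP− bins, with three replicates per tile, and tile amplicons were sequenced. Rosace fitness scores for each tile were turned into a normalized repair function score anchored on the synonymous and nonsense distributions. Synonymous medians were set to 0 and nonsense medians to -1, and variants below 300 counts per million at the start were dropped.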
row,Variant,8OG:A repair function score
1,P129N,-0.266
2,A431H,0.358
3,S296W,0.0254
4,T417A,0.198
5,A457V,-0.205
6,S490A,-0.00415
7,R189T,-0.184
8,M496W,-0.045
9,L313E,-0.601
10,W85R,-1.51
11,L184V,-0.238
12,C311H,-0.471
13,H57I,-0.613
14,H410V,-0.2
15,K422V,-0.231
16,Q351D,-0.266
17,G372E,-0.387
18,R495D,0.0213
19,T263W,-0.28
20,V274P,-1.23
21,F250Y,0.0779
22,L387F,-0.293
23,M108T,-0.981
24,W85F,-0.238

row,Variant,8OG:A repair function score
1,V48N,0.0431
2,V284A,0.00964
3,G170F,-0.166
4,V102D,-0.89
5,Q288T,0.00195
6,E319S,0.0138
7,S507A,-0.0386
8,L83K,-0.987
9,E413Y,-0.109
10,Q50I,-0.135
11,Q182S,0.0262
12,T116H,0.0217
13,V165R,-1.07
14,A280H,-0.731
15,D243E,-0.293
16,L295W,-0.0272
17,M496C,-0.00499
18,S55G,0.00135
19,E140N,-0.0981
20,E451Q,-0.157
21,P129V,-0.608
22,L355P,-0.132
23,L109T,-0.266
24,T424I,0.0389

row,Variant,8OG:A repair function score
1,V362E,-0.932
2,C489G,0.00751
3,V500H,0.0251
4,I221C,-0.728
5,S231R,0.201
6,G70I,-0.00774
7,R332T,-0.246
8,S276I,-0.0404
9,T424V,-0.09
10,L430I,-0.29
11,P84H,-0.482
12,R364S,-0.2
13,V165W,-0.957
14,F505P,0.0167
15,L234Y,-0.976
16,E45C,-0.0211
17,S487P,-0.0175
18,W103M,-0.283
19,Y469F,-0.0628
20,R69W,-3.43
21,E79K,0.0062
22,W124E,-1.01
23,Q132Y,-0.125
24,R246T,-0.728

row,Variant,8OG:A repair function score
1,L234R,-1.01
2,S270N,-0.0408
3,N210G,-0.962
4,R491H,0.0282
5,C262K,-1.3
6,A238T,-0.413
7,C216S,-0.137
8,R88Q,-0.0232
9,T191I,-0.0338
10,A461P,-0.267
11,R246C,-0.646
12,Q202D,0.0238
13,L501H,0.0143
14,P339A,-0.12
15,S292G,-0.00959
16,K80I,-0.35
17,G148D,-0.544
18,R506K,0.0152
19,V114W,-0.527
20,L360N,-1.27
21,P306R,-0.0125
22,S487A,0.0181
23,L134H,-0.607
24,C477K,0.00687

row,Variant,8OG:A repair function score
1,Q484C,-0.0119
2,M255F,-0.873
3,A457G,-0.183
4,V284I,-0.0683
5,E433W,-0.393
6,S490V,-0.0138
7,V274L,-0.0284
8,S318T,0.116
9,H172Y,-0.0294
10,T449I,-0.282
11,L432N,-0.504
12,Q252P,-1
13,A196Q,-0.897
14,R175Y,-0.175
15,W321V,-0.0988
16,E275V,0.0153
17,Q202S,-0.0817
18,G222R,-0.436
19,S74Y,0.00544
20,E256F,-0.679
21,A357K,-0.152
22,T176P,-0.429
23,T263N,-0.0422
24,W235S,-0.516

row,Variant,8OG:A repair function score
1,H312T,-0.112
2,S276T,0.0017
3,F505K,-0.0487
4,T440I,-0.117
5,A519Q,0.023
6,L393H,0.25
7,V218I,-0.196
8,S226H,0.0371
9,A147Y,-0.549
10,S510T,0.00117
11,D224S,-0.964
12,A36R,-0.15
13,Y152M,-0.3
14,P437R,-0.174
15,L349D,-0.966
16,A212R,0.0203
17,Y76W,-0.136
18,Q498L,-0.00389
19,R156F,-0.3
20,A67S,0.00133
21,Q351R,0.0269
22,Q473P,-0.0268
23,P306Q,0.0003
24,L131Q,-0.814

row,Variant,8OG:A repair function score
1,S153T,0.158
2,P34K,0.166
3,S231W,0.173
4,V301S,-0.344
5,V441N,-0.259
6,P84I,-0.257
7,K337D,-0.151
8,R398P,-0.556
9,G326A,-0.264
10,R97P,-1.03
11,W75V,-1.78
12,V441A,-0.0435
13,A254D,-0.87
14,Q358H,-0.152
15,R88S,-0.00167
16,P306S,-0.0289
17,Q484S,-0.0175
18,F68H,-1.1
19,V458Q,-0.711
20,N366Q,0.152
21,F466C,-0.319
22,E140A,-0.0255
23,V165A,-0.341
